Test results published in the domain aggregation screens of Martell et al. (2025).

Assay: soluble fraction after stress (log2 fold change); higher = more stays soluble; pooled small domains, quantitative proteomics
Settings: stress: 75 degC
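Note: 20 min heating vs room temperature control held 20 min.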

Sequence	soluble fraction (log2)
HMLKAKKIPVSDLEKFKGIVAEDVVSKAKALILPRGSNLSWLSNVAKKNLIAKLKAEGIEYISVYSS	-0.47
HMLKDGPIGAYADSVIRDIIEKMERFSKEHINVDMLKIHEKIMLIDEPIIRMALLDEFHRVSHDN	-2.47
HMLKEKETRALANFTNKFFGLDISEDLKPIALSELSKFKKTHKISNLEEFINSFQYDFQNEKILSLLDIFL	-1.34
HMLKFPIGTHVGKKKPSANLSLPNKHGVVIGHGERRNAKGAIMRFYIVETTHSSRPEEWAPGITYPL	-2.72
HMLKHEEIQEYIKEQINSGTWKPKAKLPSLRDMSELFSTSIGTVLTAYSALEKKHIIYSIPRSGYYVLG	-4.48
HMLKLEDIKKDAQVKGIVDGQIVRIVTVEPIGDHALTVYYKDHQGQFAERMLFRSDELNLELATA	-0.244
HMLKLSGEESQQLALRLREELARRRITRQGLADAAKISISTLEQVLAGRRTFTLATIVRLEEGLGIKLL	-2.65
HMLKNKSTGNINETKAILELALNHSHFKVFDNRDMTVTFKNLATQFTTMQRILVQMFFPLPAGVELIIE	0.428
HMLKNYATPEQRAQLDMLKDKGIIGENELMQLGKYPSQDKASEVLENHADAVKMLDSDEISNRAEAIRSHD	0.173
HMLKPQQTQRIYAMAARLGVLESGNKNDMLHTIVYRLTQKESIRSLNENEYKTVVSELAERLKL	-1.12
HMLKQLGRQEGRQEGAVDALRTVLALQIEQRFGPLDPTVQALIVAADIDALQRALSRVAVVSDLGAVFPP	-0.875
HMLKRLTVEFSAEMPKKMTSEQKEELASVLSEDPRPAYQNDENREYGLDYGEFSVKFKVKDGVLTVTSVTE	-0.0802
HMLLNLSPIETQVLRLIQQDKKVTYESIGKELTIGQTKVYKVLGHLKELNVIERIGGRTYGHWHILL	-1.33
HMLLNPFERLTERELEIADLYAKGYGNLEIANFLSIKQNTVSTYKKRIFEKLGIDNLVELIELIKNY	0.265
HMLLQTRQRHEALAALGYFKGDVAAAWGPASEEALRAAQAAFGITVDGKWGPQTEDAIQGALQV	-0.357
HMLLREKLESVLPFISVSALAKTYFKRSPQWFYQRLNGSIVNGKPIRFNDAELKTLAGALTDIGKKISQAA	-0.285
HMLLSEPSVLKFNDDNSYEIVSGFLTEYKDKIVKIERRYKKATVKITVAGEEKEIKVSFVEDTE	-1.43
HMLLSTHVVVAKEDVQIGTRLQPAMLQVVDWPSASPLKNPLTSIEQATDRVVNMPLVKGEPISMSKLAAKG	-0.296
HMLLTASNYFKETKGINFSELPEALQKGHSFVIKSTENGTNWNAYSTSQNIQRVIDAYFSKLDEYLEKNQ	-0.578
HMLLTHEEQIVKRGWQAPVGPFAILDSRAEAMHGDLEMLRGDREAAEQHFRRAWQIIGPIVEQ	-0.0144
HMLMKILTDALEKMSPEELKELAEATGVKNTSSITPETMVGVFQAVFRVGGFKSYQLTLIIVNAVLKA	-0.148
HMLMRKAEVGVESLNLRHGPGTQYKVLEILPGGKSLHYLAEPRRGWVRVTTEEGTTGWTFLKFLKPE	-2.22
HMLNENNHGEWSIRMSNGLVVRLGRDELNRSLRRSIMAYAGLAPNYRSSIEYIDARYLGGVALKTF	-0.159
HMLNKRQAEILAEVSRLKEITPSELYKLQPNVSSRTLRRDMDVLVNKGLVSQDGSTKSTKYTYL	0.193
HMLNMTLGDRIRSRREELRMSQEELATRLGYKSRSTIAKIESGENDLTQSKIVAFAEALSTTARWLLDY	-1.88
HMLNVNDVIARNVRAARERKKLTLDGAAELTGVSRSMLAQIEKGEVNPTISVVWKIANGFKVSFTSLVEPQ	-3.85
HMLPAGSDAILRYLSSGAVKGIGVATAARIVEKFGDETLRILEEEPGRLAEIKGITAAKAKAIGEAFAGQ	-0.356
HMLPELIVTTKKGVTVTVTNGVITYSATSNGKATFTVPNYGKWTVSATINGTVISKVVDVTEAKQIPVLLG	-1.07

Sequence	soluble fraction (log2)
HMLPERIQTIVALIGHGRAMDLVREFGGQEIKFPAQEGNDTWAALVEVIGEAATRKLAAVFGGGQAPPVYI	-1.17
HMLPGVPVVAGKTQSAATRILKAAGYAVSVVREEAFDGVTGTVLRTSPEAGSPLAPGSRVTLVVLQVV	-2.22
HMLPGWMETKFTANVSENTKNRTLEEHVLKMLNNKESAAEFIIFLHEKMMSVSGQVFQLDSR	-0.013
HMLPIGSSREQVISSLNKMHQDYKEEGNFIYAGYFKQGLPLVPSPRISIALQFNETAHLEKIDATLNYV	-0.343
HMLPKLAEEYAIMEIRGKGENLTAKLINKGGDSFMVRNGTVLQTGHRIDEITQTYVRAEINGMKDYLYFA	-0.645
HMLPLLAFDEKLNRLGYGGGFYDRTLASLAHKGNTITAIGIAYESQKMDKVPTGYFDRPLDGVLTPSGLIM	0.0528
HMLPNLWVMGPGDHLWRVAEVAMTKHLGRPVANHEIDGYWRRLVALNRESLIDPDNPDLVFAGQVIELPPF	-2.59
HMLPQGKGTAMWLADHLAAASVTLDAGARKLLEDTLGEDMSRLPGVLRVLEATFGSDAGRLSAEDIEPFL	0.075
HMLPRNKRIEIALTYIYGLGRHAATVVLKHANISPDKRTDDLDENDVRKLRDAIDANFRVEGDLRR	-1.55
HMLPTVSITGHIFIRSGSPLNRIFVGEKIYHVGDHIDRDWVIESIGIDTLTIRSGTLSTQLPL	-2.99
HMLPVFNYQVYRTHGLIYVYAKDNDSFDQIARSMGFKAKQLMKFNEVPEDFPLQAGDIVYLEKKKK	-2.35
HMLPVLEIGTMIRIIRQPHFGTIARVVALPEELTKVESETLVRILDAEFDDGTRVRIPRANVEVIE	-3.04
HMLPYGDRRRHTDNTISRIRELAAALDDSGIADRLNQDGYVTPEGKPFTYAGVRWIRYKYDISGPYERN	-1.91
HMLQKVELSDNEKFIFDSLQKEQKMALLRLKELVNLSNKAWDVSVKNLTKQGLVKVTKIDEELLIEI	-0.845
HMLQPQMKKFLNYESARNKMRPFGLSTRKEWRLFVDEGNRPADIPGDPYKKYKNKGWISWPHFLGK	-1.42
HMLRDTTLLHIDSIVRDGSTAMANITVRDEGTDLEFPLQLRMERGDMGWQVVRIVNYRAYLEAVQKA	-0.351
HMLRGKNALMSQLDQIQGIGPKRKRALFNHFLTLDAIKQADVETLRQAPGMNLPAAEQVYRHFHM	-0.2
HMLRIIDYNRVVKDLNGLTPEQLLEKLAESFTVEDKGTEEYRPTELHNFSMYLGGHWYSLTAKPGTYDDND	-1.2
HMLRMTRNRQKLVEVLMESGRPLSADEIREAAGFASTDLVTVYRNLEAFQSAGLLQRIPLENGSQLFELT	-0.46
HMLRNDEAVMLGRRLLNKHLQAFSVQIKDISHQRIHDLLDELELESLDHLLDDIGLGNRSVFLVAQKLLQ	-1.48
HMLRQRVFRIIQNNINSKNYFVYTKQILAELAGISMRSLNRTLSELQNDRLIIVDSGTIRLFT	-3.12
HMLRVGASVTANGKYWYDSYGSKPFGTANNLSTTVTRIVPGNPYPIHIGSYGWLQESQIQIT	-1.67
HMLSDADLAAFREVFDLVDKDKSGAIEMEEVEELTKLLGLDLTRDEVELLVREIDKDGNGEVDFEEFLLVM	0.00598
HMLSDHGLNDRQIMVIAGLMNGGTVTVRSIESQYGVSLNTARADVKMLVDAGLLTETGREVNMKVYSWSGK	-2.05
HMLSDSDTLRDLYLSEQIWNVGDLIRVKGKNDDTHPSWEIIRRGTNYITAIDENYKSHKVWLHDIDI	-1.3
HMLSEKELLELLNRAKSNYNGITKKGIEAIALKYQGYSNVEIANLYHVKANHISAWISRARSRLKADY	0.07
HMLSNLYAVLGVGRRATPDEITAAFDAWNARADAGEPIDDPLWERVRYAWDVLSSPSRRDLYDSLVDDATG	-1.74
